In data set [1] the test system is HeLa Kyoto. Put plainly: solubility in G1/S (NP-40 vs SDS abundance) (log2 ratio); higher = more soluble. The note with it: cell cycle stage: G1/S.
For data set [2], the system named is HeLa Kyoto. Kind of data set: melting temperature (median over replicates), in situ; higher = more thermally stable.
In data set [3] the test system is HeLa Kyoto. Kind of data set: solubility change mitosis vs G1/S (difference of NP-40 vs SDS log2 ratios) (log2 ratio difference); higher = more soluble in mitosis.
Data set [4] concerns HeLa Kyoto. Put plainly: thermal stability score vs G1/S (z-score of summed log2 fold changes over temperatures); higher = more thermally stable than in G1/S.
Where [5] appears, read: cell cycle stage: early G1 (4.5 h after nocodazole release).
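For melting temperature (median over replicates), in situ in this document: HeLa Kyoto cells synchronized by double thymidine or nocodazole block, proteins quantified by TMT10plex mass spectrometry, three independent biological replicates.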
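For solubility change mitosis vs G1/S (difference of NP-40 vs SDS log2 ratios) in this document: synchronized HeLa Kyoto cells (double thymidine block for G1/S, nocodazole release for mitosis), protein amounts in NP-40 versus SDS lysates quantified by mass spectrometry, three biological replicates.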
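For solubility in G1/S (NP-40 vs SDS abundance) in this document: HeLa Kyoto cells arrested at G1/S by double thymidine block, proteins quantified by TMT10plex mass spectrometry in mild NP-40 versus SDS extracts, three biological replicates.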
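For thermal stability score vs G1/S (z-score of summed log2 fold changes over temperatures) in this document: synchronized HeLa Kyoto cells, proteins quantified by TMT10plex mass spectrometry, three biological replicates, mitosis taken 0.5 h after nocodazole release, G1/S directly after double thymidine block.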

As for “MGDAKEAGAEGPPAGAAARGGLSLLSQGESEESSAQGSALFLGGNEVKSRAVVKYSSAPPRTAFARLEEKTDLKLPPANWLRESAKLGPAGTTILGNSKKSKPFSSFGMAYDFIDSVGNDVDVVSDSENIKKLLKIPYSKSHVSMAVHRIGRTLLLDELDIQELFMRSSQTGDWTWLKEFYQRLIDQKWQRKKKSKEHWYQKAILSKFLYYSINGDGAAQPVSSTAEQQESSSSDQTNDSEGASWPAPFEMPSSVSEDPSASSQGSEPLEPSYIVGHVASAPKEQNLITLFNDGEHSQGLKNDFVRNILWTFEDIHMLVGSNMPIFGGGRYPAVSLRLRDNNKPINVLTGIDYWLDNLICNVPELVMCFHVNGIVQKYEMIKTEEIPNLENSNFSTKVIKDIAQNILSFLKSNCTKEGHTYWLFKASGSDIVKLYDLTTLCEETEDKYQNPFTMPVAILLYKVACNMMMKKNQNKKHYGTIRTLLLNCLKLLDKSRHPQIIASANYMLSELFQLDEPKKEENSESPLNENSDESYSEEEEEMPDSDENGSYSTSSDPSDDSKAVAIIKSVGELSVPEKYKSIHQIRPSCAFPVCHDTEERCRLVLSYVLEGLKSVDSSIKKESDLPAADPSTPIPLKYEDESSRGGPEGLEKQMALFLDKMGSLQKGNYSSQSGMIPGSWQHKMKLQLILKSSKAYYVLSDAAMSLQKYGRALRYIKLALQSHDTYCCLCTNMLSEVLLFLSQYLTLCGDIQLMLAQNANNRAAHLEEFHYQTKEDQEILHSLHRESSCQGFAWATDLSTDLESQLSVSCKCYEAANEILQFSDLKSQNPEHYVQVLKRMGNIRNEIGVFYMNQAAALQSERLVSKSVSAAEQQLWKKSFSCFEKGIHNFESIEDATNAALLLCNTGRLMRICAQAHCGAGDELKREFSPEEGLYYNKAIDYYLKALRSLGTRDIHPAVWDSVNWELSTTYFTMATLQQDYAPLSRKAQEQIEKEVSEAMMKSLKYCDVDSVSARQPLCQYRAATIHHRLASMYHSCLRNQVGDEHLRKQHRVLADLHYSKAAKLFQLLKDAPCELLRVQLERVAFAEFQMTSQNSNVGKLKTLSGALDIMVRTEHAFQLIQKELIEEFGQPKSGDAAAAADASPSLNREEVMKLLSIFESRLSFLLLQSIKLLSSTKKKTSNNIEDDTILKTNKHIYSQLLRATANKTATLLERINVIVHLLGQLAAGSAASSNAVQ [EDRF1]”, the “solubility in G1/S (log2)” value with HeLa Kyoto [1] is -0.026. Also, the melting temperature in the data set on HeLa Kyoto [2] (cell cycle stage: G1/S) came out at 51 °C; with HeLa Kyoto [2] (cell cycle stage: mitosis), 49.3 °C. Also, the “solubility change mitosis (log2)” value in the data set with HeLa Kyoto [3] is -0.0878. The thermal stability score in the data set with HeLa Kyoto [4] (setting [5]) was 0.416; in the data set on HeLa Kyoto [4] (cell cycle stage: mitosis), -0.168.
In the case of “MGDHAWSFLKDFLAGGVAAAVSKTAVAPIERVKLLLQVQHASKQISAEKQYKGIIDCVVRIPKEQGFLSFWRGNLANVIRYFPTQALNFAFKDKYKQLFLGGVDRHKQFWRYFAGNLASGGAAGATSLCFVYPLDFARTRLAADVGKGAAQREFHGLGDCIIKIFKSDGLRGLYQGFNVSVQGIIIYRAAYFGVYDTAKGMLPDPKNVHIFVSWMIAQSVTAVAGLVSYPFDTVRRRMMMQSGRKGADIMYTGTVDCWRKIAKDEGAKAFFKGAWSNVLRGMGGAFVLVLYDEIKKYV [SLC25A4]”, the “solubility in G1/S (log2)” value in the data set with HeLa Kyoto [1] was -0.352. The melting temperature amounted to 58.1 °C in the data set with HeLa Kyoto [2] (cell cycle stage: G1/S) and 56.4 °C in the data set on HeLa Kyoto [2] (cell cycle stage: mitosis). Moreover, the “solubility change mitosis (log2)” value in the data set on HeLa Kyoto [3] was -0.117. Also, the thermal stability score with HeLa Kyoto [4] (setting [5]) is -2.08; in the data set on HeLa Kyoto [4] (cell cycle stage: mitosis), -1.11.
In the case of “MGDTVVEPAPLKPTSEPTSGPPGNNGGSLLSVITEGVGELSVIDPEVAQKACQEVLEKVKLLHGGVAVSSRGTPLELVNGDGVDSEIRCLDDPPAQIREEEDEMGAAVASGTAKGARRRRQNNSAKQSWLLRLFESKLFDISMAISYLYNSKEPGVQAYIGNRLFCFRNEDVDFYLPQLLNMYIHMDEDVGDAIKPYIVHRCRQSINFSLQCALLLGAYSSDMHISTQRHSRGTKLRKLILSDELKPAHRKRELPSLSPAPDTGLSPSKRTHQRSKSDATASISLSSNLKRTASNPKVENEDEELSSSTESIDNSFSSPVRLAPEREFIKSLMAIGKRLATLPTKEQKTQRLISELSLLNHKLPARVWLPTAGFDHHVVRVPHTQAVVLNSKDKAPYLIYVEVLECENFDTTSVPARIPENRIRSTRSVENLPECGITHEQRAGSFSTVPNYDNDDEAWSVDDIGELQVELPEVHTNSCDNISQFSVDSITSQESKEPVFIAAGDIRRRLSEQLAHTPTAFKRDPEDPSAVALKEPWQEKVRRIREGSPYGHLPNWRLLSVIVKCGDDLRQELLAFQVLKQLQSIWEQERVPLWIKPYKILVISADSGMIEPVVNAVSIHQVKKQSQLSLLDYFLQEHGSYTTEAFLSAQRNFVQSCAGYCLVCYLLQVKDRHNGNILLDAEGHIIHIDFGFILSSSPRNLGFETSAFKLTTEFVDVMGGLDGDMFNYYKMLMLQGLIAARKHMDKVVQIVEIMQQGSQLPCFHGSSTIRNLKERFHMSMTEEQLQLLVEQMVDGSMRSITTKLYDGFQYLTNGIM [PI4KB]”, the “solubility in G1/S (log2)” value in the data set with HeLa Kyoto [1] came to 0.00648. For the same sequence, the melting temperature with HeLa Kyoto [2] (cell cycle stage: G1/S) was found to be 52.3 °C; with HeLa Kyoto [2] (cell cycle stage: mitosis), 52.2 °C. The “solubility change mitosis (log2)” value in the data set with HeLa Kyoto [3] was -0.221. Also, the thermal stability score in the data set on HeLa Kyoto [4] (setting [5]) was -0.522; with HeLa Kyoto [4] (cell cycle stage: mitosis), -0.618.
As to “MGFLKLIEIENFKSYKGRQIIGPFQRFTAIIGPNGSGKSNLMDAISFVLGEKTSNLRVKTLRDLIHGAPVGKPAANRAFVSMVYSEEGAEDRTFARVIVGGSSEYKINNKVVQLHEYSEELEKLGILIKARNFLVFQGAVESIAMKNPKERTALFEEISRSGELAQEYDKRKKEMVKAEEDTQFNYHRKKNIAAERKEAKQEKEEADRYQRLKDEVVRAQVQLQLFKLYHNEVEIEKLNKELASKNKEIEKDKKRMDKVEDELKEKKKELGKMMREQQQIEKEIKEKDSELNQKRPQYIKAKENTSHKIKKLEAAKKSLQNAQKHYKKRKGDMDELEKEMLSVEKARQEFEERMEEESQSQGRDLTLEENQVKKYHRLKEEASKRAATLAQELEKFNRDQKADQDRLDLEERKKVETEAKIKQKLREIEENQKRIEKLEEYITTSKQSLEEQKKLEGELTEEVEMAKRRIDEINKELNQVMEQLGDARIDRQESSRQQRKAEIMESIKRLYPGSVYGRLIDLCQPTQKKYQIAVTKVLGKNMDAIIVDSEKTGRDCIQYIKEQRGEPETFLPLDYLEVKPTDEKLRELKGAKLVIDVIRYEPPHIKKALQYACGNALVCDNVEDARRIAFGGHQRHKTVALDGTLFQKSGVISGGASDLKAKARRWDEKAVDKLKEKKERLTEELKEQMKAKRKEAELRQVQSQAHGLQMRLKYSQSDLEQTKTRHLALNLQEKSKLESELANFGPRINDIKRIIQSREREMKDLKEKMNQVEDEVFEEFCREIGVRNIREFEEEKVKRQNEIAKKRLEFENQKTRLGIQLDFEKNQLKEDQDKVHMWEQTVKKDENEIEKLKKEEQRHMKIIDETMAQLQDLKNQHLAKKSEVNDKNHEMEEIRKKLGGANKEMTHLQKEVTAIETKLEQKRSDRHNLLQACKMQDIKLPLSKGTMDDISQEEGSSQGEDSVSGSQRISSIYAREALIEIDYGDLCEDLKDAQAEEEIKQEMNTLQQKLNEQQSVLQRIAAPNMKAMEKLESVRDKFQETSDEFEAARKRAKKAKQAFEQIKKERFDRFNACFESVATNIDEIYKALSRNSSAQAFLGPENPEEPYLDGINYNCVAPGKRFRPMDNLSGGEKTVAALALLFAIHSYKPAPFFVLDEIDAALDNTNIGKVANYIKEQSTCNFQAIVISLKEEFYTKAESLIGVYPEQGDCVISKVLTFDLTKYPDANPNPNEQ [SMC1A]”, the “solubility in G1/S (log2)” value in the data set on HeLa Kyoto [1] is -0.302. Further, the values for the melting temperature with HeLa Kyoto [2] (cell cycle stage: G1/S) and in the data set with HeLa Kyoto [2] (cell cycle stage: mitosis) were 51.9 °C and 51.3 °C, respectively. Besides, in the data set with HeLa Kyoto [3], the “solubility change mitosis (log2)” value is 0.0456. For the same sequence, the thermal stability score is -0.868 in the data set on HeLa Kyoto [4] (setting [5]) and -1.79 in the data set with HeLa Kyoto [4] (cell cycle stage: mitosis).

Values taken from the supplement of paper PMC5998384.
